Reference: patent US20130295021A1 (published 2013)
Non-standard residues stand in square brackets, D forms with d. No end group written: not given here. pT = C[C@@H](OP(=O)(O)O)[C@H](N)C(=O)O

Experiments:
[1] = target: T1, PHFTau, paired helical filaments containing pathologically phosphorylated tau filaments extracted from AD … (human, UniProt P10636-8 1-441, limits assumed, pathologically phosphorylated; sites not given); experiment: direct ELISA, PHFTau coated at 1:100; PHFTau coated at 1:100
T1 construct: Brain extract, aggregated and phosphorylated; also called pathologically modified tau isoforms
Protocol: (§1) ELISA plates were coated with recombinant human tau (hTau40, 1 ug/ml), PHFTau (1:100) and control preparation (1:100), and incubated with varying antibody concentrations.

[2] = target: T2, bovine serum albumin (BSA) (UniProt P02769 25-607); experiment: direct ELISA, plates coated with BSA
T2 construct: Control antigen
Protocol: To validate tau as a recognized target of isolated antibodies direct ELISA assays were performed as described above. […] No binding is observed to BSA (FIG. 10).

[3] = target: T3, His-tagged tau domain III (AA 235-373 of hTau40) (human, UniProt P10636 552-690); experiment: Western blot
T3 construct: Expressed in E. coli BL21 (DE3) and purified on Ni-NTA
Protocol: (§2) DNA fragments, synthesized using GeneArt® (Invitrogen), which encode each Tau domain with 6×His tagged at the N-terminus were cloned into the pRSET-A expression vector (Invitrogen), were transfected into E. Coli BL21 (DE3) (New England Biolabs). The expressions of the His-tagged Tau domains were induced by 0.5 mM IPTG for six hours before bacteria were lysed with lysozyme with sonication. The lysate was boiled for five minutes before being further purified with Ni-NTA Superflow Columns (Qiagen). The eluted His-tagged Tau domains were coated on ELISA plates or loaded on polyacrylamide gel for Western Blot. These sequentially overlapping tau domain polypeptides cover the full length of hTau40 (FIG. 13A).

[4] = target: T4, His-tagged tau domain IV (AA 355-441 of hTau40) (human, UniProt P10636 672-758); experiment: Western blot
T4 construct: Expressed in E. coli BL21 (DE3) and purified on Ni-NTA
Protocol: as §2

[5] = target: T5, His-tagged tau domain II (AA 136-258 of hTau40) (human, UniProt P10636 387-575); experiment: Western blot
T5 construct: Expressed in E. coli BL21 (DE3) and purified on Ni-NTA
Protocol: as §2

[6] = target: T6, recombinant human tau, isoform Tau-F of 441aa (hTau40) (human, UniProt P10636 1-758); experiment: direct ELISA, hTau40 coated at 1 ug/ml; hTau40 coated at 1 ug/ml
T6 construct: Bought from rPeptide (Bogart, USA); also called full-length tau; rTau
Protocol: (§3) 96 well microplates (Costar, Corning, USA) were coated with recombinant Tau protein (hTau40, rPeptide, Bogart, USA) diluted to a concentration of 1 μg/ml in carbonate ELISA coating buffer (50 mM, pH9.6) at 4° C. over night. Non-specific binding sites were blocked for 2 hr at RT with PBS containing 2% BSA (Sigma, Buchs, Switzerland) and 0.5% Tween20. […] EC₅₀ values were estimated by a non-linear regression using GraphPad Prism software (San Diego, USA).
as §1

[7] = target: T6, recombinant human tau, isoform Tau-F of …; experiment: ELISA on recombinant tau
[8] = target: T6, recombinant human tau, isoform Tau-F of …; experiment: ELISA on recombinant tau (FIG. 15)
[9] = target: T6, recombinant human tau, isoform Tau-F of …; experiment: direct ELISA, hTau40 coated at 1 µg/ml
Protocol: as §3
(§4) The EC₅₀ values were estimated by a non-linear regression using GraphPad Prism software.

[10] = target: T6, recombinant human tau, isoform Tau-F of …; experiment: direct ELISA, hTau40 coated at 1 µg/ml (legend of FIG. 2)
Protocol: as §3, §4

[11] = target: T7, peptide corresponding to amino acids 333-346 of hTau40 with an additional C-terminal cysteine (human); experiment: direct ELISA on coated peptide (legend of FIG. 5)
T7 peptide: GGGQVEVKSEKLDFC

[12] = target: T8, peptide corresponding to amino acids 226-239 of human tau (226VAVVRpTPPKSPSSA239), cognate epitope of AT180 (human); experiment: direct ELISA on coated peptide
T8 peptide: VAVVR[pT]PPKSPSSA

[13] = target: T6, recombinant human tau, isoform Tau-F of …; experiment: direct ELISA, hTau40 coated at 3 µg/ml (legend of FIG. 7)
From the text: as §4

[14] = target: T6, recombinant human tau, isoform Tau-F of …; experiment: direct ELISA, hTau40 coated at 3 µg/ml
From the text: as §4

T6 sequence (P10636 other isoform, or with tags, fused parts or gaps limits assumed): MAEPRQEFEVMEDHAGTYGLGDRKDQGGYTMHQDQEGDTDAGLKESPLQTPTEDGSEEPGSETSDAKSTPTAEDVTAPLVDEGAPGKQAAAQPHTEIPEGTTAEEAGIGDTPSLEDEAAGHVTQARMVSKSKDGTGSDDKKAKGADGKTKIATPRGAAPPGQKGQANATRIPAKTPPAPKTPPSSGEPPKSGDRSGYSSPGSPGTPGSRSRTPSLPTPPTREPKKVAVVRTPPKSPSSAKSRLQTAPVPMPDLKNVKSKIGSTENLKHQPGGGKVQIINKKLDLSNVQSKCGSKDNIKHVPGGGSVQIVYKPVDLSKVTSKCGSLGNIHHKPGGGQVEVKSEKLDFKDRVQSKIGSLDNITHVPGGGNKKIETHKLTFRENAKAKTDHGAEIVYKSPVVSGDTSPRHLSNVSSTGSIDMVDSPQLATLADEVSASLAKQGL
T2 sequence (P02769 25-607 limits assumed): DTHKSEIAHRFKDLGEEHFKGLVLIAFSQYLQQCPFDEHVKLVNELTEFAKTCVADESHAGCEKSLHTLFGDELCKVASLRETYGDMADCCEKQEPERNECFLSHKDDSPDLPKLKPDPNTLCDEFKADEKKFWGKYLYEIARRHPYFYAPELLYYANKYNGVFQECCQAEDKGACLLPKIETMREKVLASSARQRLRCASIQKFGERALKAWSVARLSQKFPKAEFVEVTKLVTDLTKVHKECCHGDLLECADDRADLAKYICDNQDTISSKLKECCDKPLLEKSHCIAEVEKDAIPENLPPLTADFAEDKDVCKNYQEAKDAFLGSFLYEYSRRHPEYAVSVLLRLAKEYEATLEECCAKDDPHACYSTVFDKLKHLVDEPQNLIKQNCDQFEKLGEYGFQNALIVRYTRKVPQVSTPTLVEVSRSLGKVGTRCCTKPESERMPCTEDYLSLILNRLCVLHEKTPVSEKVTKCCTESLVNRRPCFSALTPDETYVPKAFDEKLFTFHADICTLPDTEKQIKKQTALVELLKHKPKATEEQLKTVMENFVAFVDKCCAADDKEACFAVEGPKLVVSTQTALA
T1 sequence (P10636 other isoform, or with tags, fused parts or gaps limits assumed): as the sequence (P10636 other isoform, or with tags, fused parts or gaps limits assumed) above
T4 sequence (P10636 other isoform, or with tags, fused parts or gaps): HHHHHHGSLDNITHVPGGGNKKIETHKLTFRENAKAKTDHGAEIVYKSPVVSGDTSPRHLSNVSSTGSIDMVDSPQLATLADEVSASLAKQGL
T3 sequence (P10636 other isoform, or with tags, fused parts or gaps): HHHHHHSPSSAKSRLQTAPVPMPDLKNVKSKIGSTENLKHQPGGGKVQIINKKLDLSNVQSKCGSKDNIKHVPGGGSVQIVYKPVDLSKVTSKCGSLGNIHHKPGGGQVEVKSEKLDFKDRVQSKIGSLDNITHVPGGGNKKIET
T5 sequence (P10636 other isoform, or with tags, fused parts or gaps): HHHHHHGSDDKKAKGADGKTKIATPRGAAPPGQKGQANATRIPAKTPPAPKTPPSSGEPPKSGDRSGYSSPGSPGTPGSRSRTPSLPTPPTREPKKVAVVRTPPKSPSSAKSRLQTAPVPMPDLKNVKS

B1: recombinant human tau antibody NI-105.4A3 (antibody, human IgG1, V domains shown)
VH: QVQLVESGGGAVQPGGSLRLSCAASGFTFSDYAMHWVRQAPGKGLQWVAVISYEGTYKYYADSVKGRFTISRDNSKNTLNLQMSSLRVEDTAVYFCVKARAFASGQRSTSTVPDYWGQGTLVTVSS
VL: SYELTQPPSVSVSPGQTARITCSGDALPKKYAYWYQQKSGQAPVLVIYEDNKRPSGIPERFSGSSSGTVATLTISGAQVDDEADYYCYSTDISGDLRVFGGGTKLTVL
Q: Which EC50 [1] does the source give for B1 here?
A: 1.2 nM

Q: Does B1 bind [2]?
A: no binding

Q: Does B1 bind [3]?
A: no binding

Q: Does B1 bind [4]?
A: no binding

Q: Does B1 bind [5]?
A: no binding

Q: What about the EC50 [6] of the same binder?
A: 1.4 nM

B2: ch4E4(N30Q), mouse IgG2a/lambda (antibody, V domains shown)
VH: EVQLVESGGGLVQPGGSLKLSCAASGFNFQISAIHWVRQASGKGLEWVGRIRSKSHNYATLYAASLKGRFTLSRDDSRNTAYLQMSSLQTEDMAVYYCTVLSANYDTFDYWGQGTLVTVSS
VL: SYELTQPPSVSVSPGQTARISCFGDTLPKQYTYWYQQKPGQAPVLVIYKDTERPSGIPERFSGSSSGTTVTLTISGVQAEDEADYYCLSADNSATWVFGGGTKVTVLG
notes: Produced in and purified from CHO cells; also called the modified antibody
Q: With B2 as the binder, how does the “EC50 (read off the curve)” value [7] read?
A: ~0.04 µg/mL

Q: And the “fold higher apparent binding affinity relative to the original, glycosylated antibody (ch4E4)” value [8]?
A: ~4 fold

B3: ch4E4(N30Q) mIgG1 Agly (antibody, V domains shown)
VH: EVQLVESGGGLVQPGGSLKLSCAASGFNFQISAIHWVRQASGKGLEWVGRIRSKSHNYATLYAASLKGRFTLSRDDSRNTAYLQMSSLQTEDMAVYYCTVLSANYDTFDYWGQGTLVTVSS
VL: SYELTQPPSVSVSPGQTARISCFGDTLPKQYTYWYQQKPGQAPVLVIYKDTERPSGIPERFSGSSSGTTVTLTISGVQAEDEADYYCLSADNSATWVFGGGTKVTVLG
notes: also called ch4E4(N30Q) IgG 1-Agly; mouse chimeric aglycosylated variant of 4E4
Q: B3 was tested. Which “EC50 (read off the curve)” value [7] did it give?
A: ~0.04 µg/mL

B4: recombinant human tau antibody NI-105.4E4 (antibody, V domains shown)
VH: EVQLVESGGGLVQPGGSLKLSCAASGFNFNISAIHWVRQASGKGLEWVGRIRSKSHNYATLYAASLKGRFTLSRDDSRNTAYLQMSSLQTEDMAVYYCTVLSANYDTFDYWGQGTLVTVSS
VL: SYELTQPPSVSVSPGQTARISCFGDTLPKQYTYWYQQKPGQAPVLVIYKDTERPSGIPERFSGSSSGTTVTLTISGVQAEDEADYYCLSADNSATWVFGGGTKVTVL
Q: Which EC50 [9] does the source give for B4 here?
A: 2.4 nM

Q: What about the EC50 [10] of the same binder?
A: 2 nM

Q: Does B4 bind [11]?
A: binds

Q: Does B4 bind [12]?
A: no binding

B5: chimeric 4E4 (ch4E4), mouse IgG2a/lambda (antibody, V domains shown)
VH: EVQLVESGGGLVQPGGSLKLSCAASGFNFNISAIHWVRQASGKGLEWVGRIRSKSHNYATLYAASLKGRFTLSRDDSRNTAYLQMSSLQTEDMAVYYCTVLSANYDTFDYWGQGTLVTVSS
VL: SYELTQPPSVSVSPGQTARISCFGDTLPKQYTYWYQQKPGQAPVLVIYKDTERPSGIPERFSGSSSGTTVTLTISGVQAEDEADYYCLSADNSATWVFGGGTKVTVLG
modifications: N-glycan on Asn-30 (fully occupied on CHO expression)
notes: also called original, glycosylated antibody
Q: With B5 as the binder, how does the “EC50 (read off the curve)” value [7] read?
A: ~0.2 µg/mL

B6: recombinant human tau antibody NI-105.24B2 (antibody, human IgG1, V domains shown)
VH: QVQLVQSGAEVKKPGASVKVSCKASGYTFVNYIIHWVRQAPGQGLEWMGIINPNGGNTSYAEKFQARVTLTSDTSTSTVYMDLSSLTSEDTAVYYCAVLSPSNPWGQGTTVTVSS
VL: SYELTQPPSVSVSPGQTAGITCSGDALPKQFVYWYQKKPGQAPVLLIYKDTERPSRIPERFSGSTSGTTVALTINGVQAEDEADYYCQSADRSGALWVFGGGTKLTVL
Q: How did the EC50 [13] turn out when B6 was run?
A: 6 nM

Q: And the EC50 [14]?
A: 6.6 nM
